Laboratory results from the supplement of paper PMC11865577.

Columns and labels:
Assay in all cases: pull-down binding Z-score (relative to library population); higher = stronger binding
TO-N3 (biotin conjugate) = details: RNA library: Library-2
Procedure, shortened: (§1)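 An RNA library (1 μg) carrying a Cy5 or Cy3 end label was heat-folded in phosphate/NaCl/KCl buffer, then incubated for 60 min at 25 °C with streptavidin beads loaded with 100 pmol of biotin-conjugated small molecule. The beads were washed three times, and bound RNA was released in hot SDS and hybridised to a DNA barcode microarray for 20 h at 55.5 °C. Each binding score was derived by subtracting the signal from beads without compound, averaging the barcoded replicate probes after removing the highest and lowest, and expressing the result as a Z-score relative to the library mean and standard deviation.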

[1] = system: TO-3-N3 (biotin conjugate); details: RNA library: Library-2
Procedure, shortened: as §1

[2] = system: TO-3-N3-2 (biotin conjugate); details: RNA library: Library-2
Procedure, shortened: as §1

[3] = system: TO-N3-2 (biotin conjugate); details: RNA library: Library-2
Procedure, shortened: as §1

[4] = system: G-clamp-N3 (biotin conjugate); details: RNA library: Library-1 (pre-miRNA loops + repeats)
Procedure, shortened: as §1

Sequence | pull-down binding Z-score (TO-N3 (biotin conjugate)) | pull-down binding Z-score [1] | pull-down binding Z-score [2] | pull-down binding Z-score [3] | pull-down binding Z-score [4]
GAUUCGCUUUACUUAUGACGAAUC [hsa-mir-382] | -0.424 | -0.268 | -0.107 | -0.716 | -0.449
UAUUCGCUUUAUUGACUUCGAAUA [hsa-mir-369] | -0.246 | -0.0221 | -0.144 | -0.736 | -0.422
UUGAUGUCAGAAUGAGGUGUACCAA [hsa-mir-4714] | -0.148 | -0.499 | 0.1 | -0.099 | 1.29
UUUGCCAAUAAAAGUAAUGACAAA [hsa-mir-548ah] | 0.226 | 0.507 | 0.181 | -0.39 | -1.16
UAAAGAGUAUUCAACAUC [hsa-mir-1245b] | -0.49 | -0.609 | 0.0553 | -0.373 | -0.935
AGUGGCCAAUUCCU [hsa-mir-4251] | -0.607 | -0.482 | -0.313 | -0.274 | -0.851
AGAUCACUUUUCUGCACUGGACAGUGAUCU [hsa-mir-3686] | -0.904 | -0.65 | -0.462 | -0.833 | -0.182
AGUCUGUCUCAUACCCAACCAGAUU [hsa-mir-205] | 0.14 | 0.258 | 0.167 | -0.233 | -1.11
GGAGAAGACUUUUCCUUUCCUCC [hsa-mir-4660] | -0.139 | -0.1 | -0.212 | -0.545 | -0.415
UCAGCACCUGAACGCCAAGGCUGG [hsa-mir-3150a] | -0.348 | -0.481 | -0.591 | 0.123 | 0.168
AACGUUAUGUGUGGUCUUUAACCUGUU [hsa-mir-6755] | -0.139 | -0.152 | 0.16 | -0.171 | -1.32
GGGUCCUAAGGUGUGUCCUC [hsa-mir-1976] | 0.25 | -0.224 | -0.0978 | 0.812 | -0.979
UCCUCCAUGCUUGGAAAAUGCAGGGAGGA [hsa-mir-764] | -0.987 | -0.857 | -0.61 | -1.01 | 0.669
UCCUGGGAAGCAUGGUAGCCAGGA [hsa-mir-5192] | 0.319 | 0.314 | 0.431 | 0.994 | 2.06
CCUUCUACCAAGUUAAGCAUACUCAUUAGAAGG [hsa-mir-3914-2] | 0.418 | 0.653 | -0.151 | -0.346 | -0.275
AUCAUGUAUAAUUAAAAAUGAU [hsa-mir-509-2_509-3_509-1] | -0.599 | -0.267 | -0.0578 | -1 | -0.568

Sequence | pull-down binding Z-score (TO-N3 (biotin conjugate)) | pull-down binding Z-score [1] | pull-down binding Z-score [2] | pull-down binding Z-score [3] | pull-down binding Z-score [4]
GGAGAUUGGAGUGGCCAGUGUUCCUAAACAAUUC [hsa-mir-4263] | 0.387 | 0.0793 | 0.226 | 0.663 | -0.451
GGCGCGCGAGGCUCCAGGCUCC [hsa-mir-3197] | 0.81 | 0.322 | 0.248 | 1.92 | 2.56
UGCUGGAGAAGUGUUU [hsa-mir-557] | 0.49 | 0.516 | 0.0975 | 0.156 | -0.431
CUGGGGAGCCGGACAGCUCCCUUCCCAG [hsa-mir-3155a] | 0.7 | 0.918 | -0.168 | -0.0145 | 0.802
CUGGUAGUAUAAAACCCAG [hsa-mir-934] | -0.151 | -0.0745 | -0.114 | -0.468 | 0.805
GAACCCAAGAAAAGCUGACUUGGAGGUCCC [hsa-mir-4667] | 1.47 | 1.21 | 0.578 | 1.27 | -0.432
GACGGUGGGGGCCACGCUGACAGCCGC [hsa-mir-6804] | 2.24 | 2.01 | 0.752 | 1.89 | 1.9
GUUGUUGUGAGCAAUAGUAAGGAAGCAAU [hsa-mir-34a] | 0.423 | 0.276 | 0.501 | 0.486 | 0.984
GAGGCCAGAGGUGCCC [hsa-mir-4292] | 0.295 | -0.0325 | 0.122 | 1.3 | 0.687
CAGCCUUGACAACAGGCUG [hsa-mir-3130-2] | 0.391 | 0.503 | -0.184 | -0.289 | -0.151
GAAAAAUCCCUGUUAACUUUC [hsa-mir-6833] | -0.225 | -0.143 | 0.174 | 0.133 | -0.686
GUUUGCCUGUUAAUGAAUUCAAAC [hsa-mir-3129] | 0.513 | 0.445 | 0.248 | 0.0357 | -0.522
GCAUCCAGACAGCGGGCGAAUGC [hsa-mir-6836] | 0.33 | -0.0821 | -0.113 | 1.13 | 0.0557
CAGGCGGGGCAGCCCAAUGCCAUGGGCCUGAU [hsa-mir-4695] | 1.32 | 0.737 | 0.157 | 1.92 | 2.14
UGUUCAGUGGGAUUUGGAGA [hsa-mir-8061] | 0.645 | 0.542 | 0.152 | 0.449 | -0.118
UCAUUUAUGUGAACUAAAAUAUAAAUUU [hsa-mir-513a-2_513a-1] | -1.25 | -1.03 | -0.361 | -1.11 | -1.8
